The RNAGym collection of RNA variant scans (doi:10.7554/elife.80360)

B1: CPEB3 Ribozyme (parent)
chain: GGGGGCCACAGCAGAAGCGUUCACGUCGCGGCCCCUGUCAGAUUCUGGUGAAUCUGCGAAUUCUGCUGU

Variants of: B1
Assay: self-cleavage, relative activity (ratio to wild type); higher = more cleavage; co-transcriptional

Variant	self-cleavage
C27U G37C	0.147
U26G G68U	0.968
U26G G68A	1.01
U26G G68C	0.932
C27U U49G	0.421
C27G U38A	0.191
C27G U38C	0.243
C27A G47U	0.738
C27A G47C	0.72
C27A U67C	0.66
C27A U67A	0.685
C27G G37C	0.162
C27U C39G	0.164
C27U C39A	0.186
C27A C35A	0.209
C27A C35U	0.441
C27A G58A	0.377
C27A G58U	0.727
C27A C29G	0.195
C27U U43G	0.14
C27U U43A	0.188
C27A A42C	0.286
C27A A42U	0.379
C27A A42G	0.419

Variant	self-cleavage
C27A C63A	0.227
C27A C66A	0.334
C27A C66G	0.327
C27A C33G	0.224
C27A C33A	0.288
C27A C33U	0.539
C27U C34A	0.201
C27U C34U	0.415
C27G A59G	0.259
C27G A59C	0.151
C27G A59U	0.216
C27A G30C	0.138
C27A G30A	0.176
U26G U44C	0.866
U26G U44G	0.811
U26G U44A	0.925
U26G U53A	0.782
U26G U53C	0.768
U26G U53G	0.778
C27A U62C	0.365
C27A U62A	0.288
C27A U62G	0.241
C27A U53A	0.344
C27A U53C	0.213

Variant	self-cleavage
C27G G28C	0.13
C27G G28U	0.154
C27G U44G	0.155
C27G G31A	0.174
C27G G31C	0.174
C27A U43A	0.18
C27A U43G	0.226
C27U G48C	0.397
U26G U69G	1
U26G U69A	1
U26G U69C	1.04
C27U A60G	0.254
C27U A60C	0.192
G28A C45A	0.184
G28A C45G	0.196
C27A G65A	0.255
C27A G65C	0.288
C27A G65U	0.202
C27A U49G	0.59
C27A U49C	0.702
C27U C45G	0.243
U26G U64A	0.692
U26G U64C	0.756
C27G U46A	0.162

Variant	self-cleavage
C27G U46G	0.188
C27G U46C	0.181
G28A G31C	0.208
C27U U44C	0.15
C27U U44G	0.198
C27U U44A	0.292
C27U G30C	0.164
C27U G30U	0.181
C27U G30A	0.224
U26G U36C	0.42
U26G U36G	0.198
G28A A40U	0.167
G28A A40G	0.214
C27G C39U	0.138
G28A G30C	0.167
U26G U67C	0.91
U26G U67A	0.854
U26G U67G	0.968
G28A C35U	0.203
G28A C35A	0.17
C27U A42G	0.174
C27U A42C	0.27
G28A C34A	0.218
G28A C32G	0.139

Variant	self-cleavage
G28A C32A	0.19
G28A C32U	0.184
C27G C34U	0.223
C27G C34G	0.142
C27U G31U	0.192
C27U G31A	0.266
C27A U44G	0.295
C27A U44C	0.354
C27A U44A	0.439
G28A A52G	0.234
C27U G56C	0.194
C27U G56A	0.308
U26G U55G	0.404
C27U G47C	0.436
C27U G47U	0.431
U26G U49G	0.907
U26G U49C	0.924
C27G C66A	0.174
C27G C66U	0.156
C27G A40C	0.258
C27A U55G	0.226
C27A U55C	0.272
C27A U55A	0.237
C27G G68U	0.309

Variant	self-cleavage
C27G G68C	0.234
G28A C33U	0.22
G28A C33A	0.18
G28A C33G	0.195
C27U C32A	0.227
C27U C32G	0.186
C27U C32U	0.403
C27A C54A	0.25
C27U G58C	0.351
C27U G58A	0.237
C27U G58U	0.526
C27G U61A	0.19
G28A A60U	0.199
G28A A60G	0.168
G28A A60C	0.197
G28A G37A	0.157
G28A G37C	0.193
G28A G37U	0.186
C27U C54A	0.18
C27U C54G	0.195
C27U C54U	0.328
C27U C57G	0.166
C27U C57A	0.242
U26G U46A	0.854

Variant	self-cleavage
U26G U46C	0.86
U26G U46G	0.86
C27A G37U	0.17
C27A G37C	0.17
C27A A59C	0.247
C27A A59U	0.245
C27G C32G	0.134
C27G C32U	0.207
C27G C32A	0.201
G28A G41C	0.177
C27U G41C	0.195
C27U G41U	0.186
C27G G50A	0.17
C27G G50C	0.141
C27G G50U	0.175
C27G G41U	0.151
C27G G41A	0.154
C27G C33G	0.241
G28A C63A	0.182
G28A C63G	0.178
C27A A40C	0.256
C27A A40U	0.304
C27A A40G	0.452
